# In US20200095340A1:
# Positions count from the first letter of the chain named.
# B1: anti-DLL3 trispecific protein 2E01 (protein, part only; not given: anti-CD3 and anti-albumin domains, part only)
# chain, part: EVQLVESGGGLVQPGGSLTLSCVASGSTSSINAMGWYRRAPFKQGELPAGISPDGTKAYADSAKVRFTISRDNAKNSVYLQMNSLRAEDTAVYYCYYFHTVCGTSMGYWGQGTLVTVSSGGGGSGGGSGGGGSGGGSHHHHHH
# B2: anti-DLL3 trispecific protein 2E011 (protein, part only; not given: CD3 binder and albumin binder, part only)
# chain, part: EVQLVESGGGLVQPGGSLTLSCVASGSTSSINAIGWYRRAPGKQRELVAGISSDGSSVYADSVKGRFTISRDNAKNSVYLQMNSLRAEDTAVYYCYYFRRVSGSSMRYWGQGTLVTVSSGGGGSGGGSGGGGSGGGSHHHHHH
# B3: anti-DLL3 trispecific protein 1C05 (protein, part only; not given: CD3 binder and albumin binder, part only)
# chain, part: B2 chain, part with I34M, G35A, S57K, R100T, S105H
# B4: anti-DLL3 trispecific protein 1C010 (protein, part only; not given: CD3 binder and albumin binder, part only)
# chain, part: B2 chain, part with S30R, I34M, I51V, S57K, R100T, R107S
# B5: anti-DLL3 trispecific protein 2H011 (protein, part only; not given: anti-CD3 fragment and anti-albumin domain, part only)
# chain, part: B2 chain, part with S30R, I34M, S57K
# B6: anti-DLL3 trispecific protein 1E012 (protein, part only; not given: CD3 binder and albumin binder, part only)
# chain, part: B2 chain, part with I31T, I34M, S57K, A60V, R100T, R107V
# B7: anti-DLL3 trispecific protein 2G08 (protein, part only; not given: anti-CD3 and anti-albumin domains, part only)
# chain, part: B2 chain, part with S30Y, I34M, S57K, R100T, S104Q, R107G
# B8: anti-DLL3 trispecific protein 1A011 (protein, part only; not given: anti-CD3 and anti-albumin domains, part only)
# chain, part: B2 chain, part with S57K, A60I, R100T, M106Y
# B9: anti-DLL3 trispecific protein 2D012 (protein, part only; not given: anti-CD3 fragment and anti-albumin sdAb, part only)
# chain, part: B2 chain, part with S27K, I34M, S57K, A60T, R100T, V101R
# B10: anti-DLL3 trispecific protein 1F02 (protein, part only; not given: CD3 binder and albumin binder, part only)
# chain, part: B2 chain, part with I34M, G35A, V48A, G55Q, S57K, V63A, R100T, R107S
# B11: anti-DLL3 trispecific protein 1D09 (protein, part only; not given: anti-CD3 and anti-albumin domains, part only)
# chain, part: B2 chain, part with I34M, G35A, S57K, A60T, R100T, V101I
# B12: anti-DLL3 trispecific protein 1D011 (protein, part only; not given: anti-CD3 and anti-albumin domains, part only)
# chain, part: B2 chain, part with I34M, G35A, G55N, S57K, R100T, S104H
# B13: anti-DLL3 trispecific protein 2E05 (protein, part only; not given: CD3 fragment and albumin sdAb, part only)
# chain, part: B2 chain, part with T28P, I34Y, S57K, A60S, R100T, R107S
# B14: anti-DLL3 trispecific protein 1C01 (protein, part only; not given: anti-CD3 and anti-albumin domains, part only)
# chain, part: B2 chain, part with I34M, S57K, A60R, R100T, R107G
# B15: anti-DLL3 trispecific protein 2A011 (protein, part only; not given: anti-CD3 and anti-albumin domains, part only)
# chain, part: B2 chain, part with S57K, A60S, R100P
# B16: anti-DLL3 trispecific protein 1H012 (protein, part only; not given: anti-CD3 fragment and anti-albumin sdAb, part only)
# chain, part: B2 chain, part with I34M, S57K, A60V, R100T, R107P
# B17: anti-DLL3 trispecific protein 1B01 (protein, part only; not given: anti-CD3 fragment and anti-albumin sdAb, part only)
# chain, part: B2 chain, part with S30I, I34M, V48A, S57K, Y59I
# B18: anti-DLL3 trispecific protein 1A012 (protein, part only; not given: CD3 binder and albumin binder, part only)
# chain, part: B2 chain, part with I34M, G35A, S57K, A60S, R100T, S102L
# B19: anti-DLL3 trispecific protein 1E011 (protein, part only; not given: anti-CD3 and anti-albumin domains, part only)
# chain, part: B2 chain, part with S27N, I34M, S57K, A60Y, R100T, S102R, M106Q
# B20: anti-DLL3 trispecific protein 1A05 (protein, part only; not given: CD3 fragment and albumin sdAb, part only)
# chain, part: B2 chain, part with T28P, I34M, V48S, S57K, R100T, S102R, R107S
# B21: anti-DLL3 trispecific protein 2H03 (protein, part only; not given: CD3 binder and albumin binder, part only)
# chain, part: B2 chain, part with I34M, G35A, S57K, R100Q
# B22: anti-DLL3 trispecific protein 2E010 (protein, part only; not given: anti-CD3 and anti-albumin domains, part only)
# chain, part: B2 chain, part with I34M, G35A, S57K, R99H, R100T
# B23: anti-DLL3 trispecific protein 1E09 (protein, part only; not given: CD3 fragment and albumin sdAb, part only)
# chain, part: B2 chain, part with I34M, G35A, S57K, A60T, R100T, V101R
# B24: anti-DLL3 trispecific protein 1D010 (protein, part only; not given: anti-CD3 and anti-albumin domains, part only)
# chain, part: B2 chain, part with I31N, I34M, G35A, S57K, A60T, R100T, V101R
# B25: anti-DLL3 trispecific protein 2C02 (protein, part only; not given: CD3 binder and albumin binder, part only)
# chain, part: B2 chain, part with I34V, S57K, A60V, R100T, S102Y
# B26: anti-DLL3 trispecific protein 2H02 (protein, part only; not given: anti-CD3 and anti-albumin domains, part only)
# chain, part: B2 chain, part with I34M, G35A, V48A, S57K, R99H, R100T
# B27: anti-DLL3 trispecific protein 1F011 (protein, part only; not given: anti-CD3 fragment and anti-albumin sdAb, part only)
# chain, part: B2 chain, part with S57K, R100T, S102K
# B28: anti-DLL3 trispecific protein 3H011 (protein, part only; not given: CD3 fragment and albumin sdAb, part only)
# chain, part: EVQLVESGGGLVQPGGSLTLSCAASGSSVKFLSMAWYRQAPGKKRELVAGISADGSTVYIDSVKGRFTISRDNAKNSVYLQMNSLRAEDTAVYYCYAYRWPTRYTYWGQGTLVTVSSGGGGSGGGSGGGGSGGGSHHHHHH
# B29: anti-DLL3 trispecific protein 4C01 (protein, part only; not given: anti-CD3 fragment and anti-albumin sdAb, part only)
# chain, part: B28 chain, part with K30R, P101K
# B30: anti-DLL3 trispecific protein 4H011 (protein, part only; not given: anti-CD3 and anti-albumin domains, part only)
# chain, part: B28 chain, part with K30S, F31R, A53V, V58D, P101T, Y104L
# B31: anti-DLL3 trispecific protein 4D09 (protein, part only; not given: CD3 binder and albumin binder, part only)
# chain, part: B28 chain, part with V58D, D61L, R99E, P101T
# B32: anti-DLL3 trispecific protein 3F010 (protein, part only; not given: CD3 fragment and albumin sdAb, part only)
# chain, part: B28 chain, part with G26Y, K30S, F31R, P101T, Y104N
# B33: anti-DLL3 trispecific protein 4D01 (protein, part only; not given: CD3 binder and albumin binder, part only)
# chain, part: B28 chain, part with K30R, P101T, Y104R
# B34: anti-DLL3 trispecific protein 4G01 (protein, part only; not given: CD3 binder and albumin binder, part only)
# chain, part: B28 chain, part with K30R
# B35: anti-DLL3 trispecific protein 4B011 (protein, part only; not given: CD3 fragment and albumin sdAb, part only)
# chain, part: B28 chain, part with K30T, P101T, Y104G
# B36: anti-DLL3 trispecific protein 4B07 (protein, part only; not given: anti-CD3 fragment and anti-albumin sdAb, part only)
# chain, part: B28 chain, part with K30G, P101T
# B37: anti-DLL3 trispecific protein 3D011 (protein, part only; not given: CD3 binder and albumin binder, part only)
# chain, part: B28 chain, part with K30S, F31R, T57R, V58D, P101T, T105K
# B38: anti-DLL3 trispecific protein 3C03 (protein, part only; not given: anti-CD3 fragment and anti-albumin sdAb, part only)
# chain, part: B28 chain, part with K30R, A53R, P101T, Y104G
# B39: anti-DLL3 trispecific protein 4E02 (protein, part only; not given: CD3 binder and albumin binder, part only)
# chain, part: B28 chain, part with S28Q, K30S, P101S
# B40: anti-DLL3 trispecific protein 3C04 (protein, part only; not given: anti-CD3 and anti-albumin domains, part only)
# chain, part: B28 chain, part with S28H, K30S, S56P, V58D, P101D
# Target: biotinylated human DLL3 protein expressed as a human IgG1 fusion protein (human) (UniProt Q9NYJ7)
# Test: Octet BLI; biotinylated huDLL3-IgG1 fusion on streptavidin tips; single 50 nM; conditioned medium
# Chain of biotinylated human DLL3 protein expressed as a human IgG1 fusion protein (human) (Q9NYJ7 other isoform, or with tags, fused parts or gaps): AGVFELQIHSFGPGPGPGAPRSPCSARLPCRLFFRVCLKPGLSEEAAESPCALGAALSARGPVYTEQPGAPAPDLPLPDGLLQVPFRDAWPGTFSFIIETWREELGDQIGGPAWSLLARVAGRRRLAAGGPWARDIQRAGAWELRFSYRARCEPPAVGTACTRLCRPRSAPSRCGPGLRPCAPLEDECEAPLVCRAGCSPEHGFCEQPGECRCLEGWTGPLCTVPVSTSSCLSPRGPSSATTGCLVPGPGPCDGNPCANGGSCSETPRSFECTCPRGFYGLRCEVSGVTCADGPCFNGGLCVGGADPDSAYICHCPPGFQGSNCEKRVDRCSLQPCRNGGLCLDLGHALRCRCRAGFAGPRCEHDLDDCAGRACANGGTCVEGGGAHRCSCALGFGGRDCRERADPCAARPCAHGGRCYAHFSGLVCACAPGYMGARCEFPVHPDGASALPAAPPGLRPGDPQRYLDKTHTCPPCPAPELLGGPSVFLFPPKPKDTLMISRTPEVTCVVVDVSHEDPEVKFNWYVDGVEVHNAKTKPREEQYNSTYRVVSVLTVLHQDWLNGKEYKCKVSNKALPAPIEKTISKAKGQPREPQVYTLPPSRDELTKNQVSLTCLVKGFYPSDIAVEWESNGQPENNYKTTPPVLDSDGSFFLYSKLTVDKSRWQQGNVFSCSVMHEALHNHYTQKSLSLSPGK
row,Kd [nM],Binder
1,4.1,B1
2,2.4,B2
3,5.3,B3
4,2.5,B4
5,5,B5
6,5.3,B6
7,4.1,B7
8,3.7,B8
9,4.9,B9
10,4,B10
11,5.2,B11
12,4.4,B12
13,3.9,B13
14,4.3,B14
15,4,B15
16,3.5,B16
17,5.2,B17
18,4.9,B18
19,2.7,B19
20,4,B20

row,Kd [nM],Binder
1,5.3,B21
2,4,B22
3,4.4,B23
4,5,B24
5,4.1,B25
6,4.4,B26
7,5,B27
8,2.7,B28
9,5.1,B29
10,4.5,B30
11,4.7,B31
12,4.4,B32
13,3.7,B33
14,3.6,B34
15,3.9,B35
16,4.3,B36
17,5.3,B37
18,4.9,B38
19,3.8,B39
20,4.5,B40
